Columns and labels:
HCV-Luc replicon = HCV-Luc replicon luciferase assay in Huh-7 cells; format: cell-based, hepatitis C virus; conditions: peptide added to Huh-7 cells containing the replicon; 48 hours
Protocol: HCV Replicon assays: Huh-7 cells were transiently transfected with replicon RNA having a firefly (P. pyralis) luciferase gene (0.2 μg/well), and with a control plasmid pRL (0.05 μg/well) having a renilla (R. reniformis) luciferase gene, using DMRIEC (Invitrogen) reagent as per the kit protocol (19). The specific additions of pmNS3, mutant replicon, pwt-NS3 etc were done concurrently. The cells were lysed after 48 hours, and luciferase activity detected using the DUAL LUCIFERASE assay kit (Promega) (24, 25).
Trans complementation assays: These assays were performed in the same manner as the regular replicon assays except that in the trans complementation assays two RNA's of different replicons (wild type and the mutant) were added along with a pRL plasmid to control for transfection efficiency.
In vivo the dominant negative mNS3 (pmNS3) down regulates the activity of the HCV-Luc replicon: Huh-7 cells were plated in a 12-well plate at 0.1 million cells per well. […]
The peptide was introduced into Huh-7 cells containing the HCV luciferase replicon. 48 hours after introduction of the peptide, luciferase activity was measured. […]

dT15 DNA = experiment: DNA binding by fluorescence polarization; conditions: 37° C.
Protocol: (§1) FIGS. 10A and B. Binding of mutant NS3h to fluorescein-labeled U20 RNA (FIG. 10A) or dT15 DNA (FIG. 10B). Nucleic acid binding was determined by measuring fluorescence polarization following incubation of protein and nucleic acid at 37° C. Data were fit to a hyperbola using Kaleidagraph software.
(§2) Varying concentrations of NS3h were incubated with 500 pM 5′-fluorescein-labeled rU20 (Integrated DNA Technologies) in 50 mM MOPS-K+(pH 7.0), 10 mM NaCl, 50 μM EDTA, 0.1 mg/ml BSA for 5 minutes at 37° C. Binding was measured as a function of fluorescence polarization using a Beacon fluorescence polarization system. Data were fit to a hyperbola using Kaleidagraph software.

45:30mer DNA substrate [1] = experiment: Single turnover DNA unwinding assay (quench-flow, two-step mixing); format: biochemical; conditions: for single turnover unwinding rate / amplitude for unwinding: 500 nM enzyme; for single turnover unwinding rate: 2 nM substrate, fit to equation 1; for amplitude for unwinding: single turnover
Protocol: FIG. 14. Single turnover DNA unwinding by NS3h and NS3h mutant enzymes. A two-step mixing technique was used to measure single-turnover unwinding in the presence of excess NS3h. NS3h (500 nM) or mutant enzyme was rapidly mixed with substrate followed by a 10-second incubation. A second, rapid mixing step followed in which ATP, Mg^+2, and protein trap (poly dT) was added. Data were fit according to equation 1 resulting in unwinding rates of 3.1±0.1 s^−1 and 3.7±0.1 s−1 for NS3h (●) and NS3h KDA (♦), respectively. The amplitudes for unwinding were 0.35±0.01 nM and 0.21±0.01 nM for NS3h and NS3h KDA, respectively.
Unwinding assays were carried out using a Quench-Flow apparatus (RQF-3, KinTek Instruments, Austin, Tex.) with a two-step mixing protocol (49). Reactions were carried out in 25 mM MOPS (pH 7.0), 10 mM NaCl, 0.1 mM EDTA (pH 8.0), 2 mM βME, and 0.1 mg/mL BSA at 37° C.; all concentrations are post-mixing. NS3h (500 nM) was mixed with 2 nM DNA substrate (described in steady state section) for 10 seconds before adding 5 mM ATP, 10 mM MgCl2, 60 nM annealing trap (complementary to the displaced strand), and 100 μM poly-dT protein trap. The reaction was quenched after 0.1-15 seconds by ejection into a tube containing 200 mM EDTA, 0.7% SDS. Double- and single-stranded DNA were resolved on a native 20% polyacrylamide gel. The radiolabeled substrate and product were detected using a PHOSPHORIMAGER (Molecular Dynamics, Sunnyvale, Calif.); quantitation was performed with IMAGEQUANT software. The ratio of single- to double-stranded DNA was determined and plotted as a function of time. Data were fit to Equation 1, using KALEIDAGRAPH (Synergy Software, Reading, Pa.). This equation describes a 5-step mechanism for DNA unwinding that is necessary to fit the substantial lag phase associated with unwinding of the substrate (49, 52, 53). A{1−[1+kobst+1/2 (kobst)^2+1/6 (kobst)^3+1/24(kobst)^4]e^−kobs^t} Eq. 1 Results Crystallization and Structural Analysis of NS3h Bound to (dU)16

45:30mer DNA substrate [2] = experiment: Steady state DNA unwinding assay; format: biochemical
Protocol: FIGS. 12A-C. Steady state unwinding activity of mutant versus wild type NS3h. A) The assay for measuring helicase unwinding activity is depicted. A partially duplexed substrate containing 30 bp and 15 nt of ss overhang (45:30mer) was incubated with NS3h in the presence of ATP and Mg^+2 leading to unwinding of the duplex. B) Comparison of unwinding of DNA and RNA substrates by NS3h. Otherwise identical 250 nM duplexed DNA and RNA substrates were incubated with 100 nM NS3h. Reactions were initiated by addition of 5 mM ATP and 10 mM MgCl2 and quenched by addition of 200 mM EDTA/0.7% SDS. C) Unwinding of 250 nM substrate under steady state conditions. Unwinding by 100 nM NS3h (●), NS3h KDA (∘), and NS3h DDDD (▪) occurred at rates of 5.3 nM min^−1, 5.7 nM min^−1, and 4.1 nM min^−1, respectively.
The substrate used was a 45-mer/30-mer containing 30 base pairs of double-stranded DNA with a 15 base 3′ single-stranded overhang. One strand was radiolabeled by incubation with γ-^32P-ATP and T4 polynucleotide kinase at 37° C. for 60 min. Unincorporated ATP was removed by SEPHADEX G-25 filtration. Equimolar amounts of labeled and complementary unlabeled strands were combined, heated to 95° C. for 10 min, and cooled slowly to room temperature to generate the final substrate. For steady state unwinding experiments, 100 nM NS3h was incubated with 250 nM substrate in 25 mM HEPES (pH=7.5), 0.5 mM EDTA, 10 mM MgCl2, 10 mM NaCl, 0.1 mg/ml BSA. Reactions were initiated by addition of 5 mM ATP. Aliquots were taken at specific time points and the reaction was quenched by addition of 200 mM EDTA, 0.7% SDS. Substrate and product were separated by native polyacrylamide gel electrophoresis and detected and quantified by phosphorimaging analysis.

[3] = biological target: fluorescein-labeled U20 RNA; experiment: RNA binding assay by fluorescence polarization; conditions: 37° C.
Protocol: as §1, §2

[4] = tested on: partial duplex DNA substrate (15 nt single stranded, 30 base pairs); experiment: ATP-independent DNA unwinding assay; format: biochemical; conditions: 500 nM enzyme, excess over substrate, no ATP, 37° C.
Protocol: FIG. 13. Graph showing ATP-independent unwinding activity of NS3h wild-type, NS3h KDA, and NS3h DDDD. NS3h, 500 nM, was incubated with a partial duplex DNA substrate containing 15 nt of single stranded DNA and 30 base pairs at 37° C. Aliquots were quenched by addition of 100 μM poly dT and 60 nM of a 30mer oligonucleotide that served to prevent reannealing. ssDNA was separated from dsDNA by native polyacrylamide electrophoresis and the resulting fractions were quantified by using IMAGEQUANT software. DNA melting is shown for NS3h (●), NS3h KDA (♦), and NS3h DDDD (▪).
NS3h or NS3h mutant enzymes (500 nM) were mixed with 2 nM DNA substrate (described in steady state section) in 25 mM MOPS (pH 7.0), 10 mM NaCl, 0.1 mM EDTA (pH 8.0), 2 mM βME, and 0.1 mg/mL BSA at 37° C. Aliquots were transferred to a ‘quench solution’ containing 200 mM EDTA, 0.7% SDS, 5 mM ATP, 10 mM MgCl2, 60 nM annealing trap, and 100 μM poly-dT protein trap. Double- and single-stranded DNA were resolved on a native 20% polyacrylamide gel. The radiolabeled substrate and product were detected using a PHOSPHORIMAGER (Molecular Dynamics, Sunnyvale, Calif.); quantitation was performed with IMAGEQUANT software. The ratio of single- to double-stranded DNA was determined and plotted as a function of time.

[5] = Coupled ATPase assay stimulated by polyU; format: biochemical; conditions: saturating polyU
Protocol: FIG. 11. ATPase activity of mutant NS3h was measured as a function of NADH concentration in a coupled assay at varying concentrations of polyU. Data were fit to a hyperbola using Kaleidagraph software. […] Specific activity of NS3h DDDD (▪) was lower.
NS3h was incubated with 5 mM ATP in 50 mM HEPES (pH=7.5), 5 mM EDTA, 10 mM MgCl2, 10 mM NaCl, 0.1 mg/ml BSA, 4 mM phosphoenolpyruvate, 10 U/ml pyruvate kinase/lactate dehydrogenase, and 0.7 mg/ml NADH. Absorbance of NADH at 380 nm was measured at 1 sec intervals for a period of 30 sec in the presence of the indicated concentrations of poly-U. Hydrolysis rates were calculated using an extinction coefficient of 1,210 M^−1 cm^−1 for NADH. Data were fit to a hyperbola using Kaleidagraph software.

[6] = 100 nM enzyme, 250 nM substrate

Row | Molecule | luciferase activity of HCV luciferase replicon after peptide (HCV-Luc replicon) | Kd (dT15 DNA) [µM] | single turnover unwinding rate (45:30mer DNA substrate [1]) [s⁻¹] | fraction of 45:30mer unwound (45:30mer DNA substrate [1]; same substrate, same conditions for both forms (unpublished data)) [%] | amplitude for unwinding (45:30mer DNA substrate [1]) [nM] | steady state unwinding rate (45:30mer DNA substrate [2]; [6]) [nM/min] | steady state unwinding rate (45:30mer DNA substrate [2]; 45:30mer DNA, steady state conditions) | Kd [3] [µM] | ATP-independent unwinding [4] | ATPase specific activity [5] [s⁻¹]
1 | HIDAHFLSQTK-GGG-YARAAARQARA (HIDAHFLSQTKGGGYARAAARQARA; NS3-oligomerization inhibitor peptide with cell entry peptide) [HCV inhibitor peptide, 25 amino acid peptide: NS3 residues 541-551, three-glycine linker, peptide transduction domain …] | strongly reduced the luciferase activity | – | – | – | – | – | – | – | – | –
2 | NS3h: wild type HCV NS3 helicase domain, expressed and purified independently of NS3 protease (protein) AVDFVPVESMETTMRSPVFTDNSSPPAVPQTFQVAHLHAPTGSGKSTKVPAAYAAQGYKVLVLNPSVAATLGFGAYMSKAHGIDPNIRTGVRTITTGAPITYSTYGKFLADGGCSGGAYDIIICDECHSTDSTTILGIGTVLDQAETAGARLVVLATATPPGSVTVPHPNIEEVALSSTGEIPFYGKAIPIETIKGGRHLIFCHSKKKCDELAAKLSGLGLNAVAYYRGLDVSVIPTSGDVIVVATDALMTGFTGDFDSVIDCNTCVTQTVDFSLDPTFTIETTTVPQDAVSRSQRRGRTGRGRMGIYRFVTPGERPSGMFDSSVLCECYDAGCAWYELTPAETSVRLRAYLNTPGLPVCQDHLEFWESVFTGLTHIDAHFLSQTKQAGDNFPYLVAYQATVCARAQAPPPSWDQMWKCLIRLKPTLHGPTPLLYRLGAVQNEVTTTHPITKYIMACMSADLEVVT | – | 0.0059 ± 0.0014 | 3.1 ± 0.1 | 17 | 0.35 ± 0.01 | 5.3 | approximately 1 nM/min | 0.047 ± 0.005 | much greater ATP-independent unwinding than NS3h KDA or NS3h DDDD | 126
3 | NS3h KDA: purified NS3 helicase domain with D543K/H545D/Q549A mutations (protein) AVDFVPVESMETTMRSPVFTDNSSPPAVPQTFQVAHLHAPTGSGKSTKVPAAYAAQGYKVLVLNPSVAATLGFGAYMSKAHGIDPNIRTGVRTITTGAPITYSTYGKFLADGGCSGGAYDIIICDECHSTDSTTILGIGTVLDQAETAGARLVVLATATPPGSVTVPHPNIEEVALSSTGEIPFYGKAIPIETIKGGRHLIFCHSKKKCDELAAKLSGLGLNAVAYYRGLDVSVIPTSGDVIVVATDALMTGFTGDFDSVIDCNTCVTQTVDFSLDPTFTIETTTVPQDAVSRSQRRGRTGRGRMGIYRFVTPGERPSGMFDSSVLCECYDAGCAWYELTPAETSVRLRAYLNTPGLPVCQDHLEFWESVFTGLTHIKADFLSATKQAGDNFPYLVAYQATVCARAQAPPPSWDQMWKCLIRLKPTLHGPTPLLYRLGAVQNEVTTTHPITKYIMACMSADLEVVT | – | 0.0026 ± 0.0008 | 3.7 ± 0.1 | – | 0.21 ± 0.01 | 5.7 | – | 0.038 ± 0.004 | – | 108
